Where “and” joins values, the source holds several entries; their conditions need not be identical. Equal entries are not always repeated.
What was measured:
[1] = tested on: tomato seeds (variety, Marglobe); assay: 13 amino acid peptide: tomato seedling growth after seed soak; type: in vivo
Experimental: The synthesized peptide was resuspended in 10 ml of 5 mM potassium phosphate buffer and, then, diluted to 1 and 100 ng/ml with the same buffer. About 100 tomato seeds (variety, Marglobe) were submerged in 20 ml of peptide solution overnight. The soaked seeds were planted in an 8 inch pot with artificial soil. Seeds soaked in the buffer without the peptide were used as a control. After seedlings emerged and the first two true leaves fully expanded, the height of the tomato seedlings was recorded.

parsley cells = details: H+/Ca2+ influxes, K+/Cl− effluxes, active oxygen production, SAR gene induction, phytoalexin accumulation; cited from earlier work
[2] = tested on: tobacco and other tested plants; assay: 13 amino acid peptide: HR in tobacco and other tested plants; type: in vivo
tomato = assay: HrpZ fragments: growth enhancement (PGE); type: in vivo; details: % greater height than buffer sprayed plants; 152-294 preparation diluted 40-fold, 190-294 diluted 8-fold
Experimental: To test whether non-HR eliciting fragments derived from HrpZ, the hypersensitive response elicitor from Pseudomonas syringae pv. syringae, is able to induce disease resistance, several fragment constructs were made and the expressed fragment proteins were tested for HR elicitation and disease resistance induction in tobacco and growth promotion in tomato.
(§1) The fragment preparations were then tested for inducing resistance to TMV and for growth enhancement. Due to the difference in concentration of the HrpZ fragments, the 152-294 preparation was diluted 40-fold and the 190-294 preparation was diluted 8-fold. […] In contrast, the 152-294 aa fragment reduced the number of TMV lesions by only 55%. As also shown in Table 8, plants treated with the 152-294 aa fragment grew 4.64% more than buffer treated plants, while plants treated with the 190-294 aa fragment grew 2.62% more than the buffer treated plants.

tobacco leaves = assay: HR test of HrpZ fragment preparations in tobacco leaves; type: in vivo; set-up: key to HR elicitation: +, elicits HR in tobacco leaves; −, no HR in tobacco leaves
Experimental: Amino acid fragments 152-294 and 190-294 were chosen for further analysis and characterization. It was expected that the fragment 152-294 contained a domain that elicited the HR, while fragment 190-294 contained no domain that elicited the HR. The cultures were spun down, and the bacteria resuspended in 40 ml of 10 mM Tris pH 8.0. Twenty μl of antifoam and 40 μl of 200 mM PMSF were added, and the bacteria was sonicated to break open the cells. The bacterial debris was removed by centrifugation, and the supernatant was placed in a boiling water bath for 10 min. The precipitate was removed by centrifugation and the supernatant, a crude protein preparation, was retained for tests.
Fifteen μl of each supernatant was run on a gel and stained to determine if the protein was present. It was estimated that about five times as much of the 152-294 fragment was present as the 190-294 fragment. Several dilutions of each preparation were infiltrated into tobacco leaves on two plants for HR tests (Table 7).

TMV = assay: HrpZ fragments: induced resistance to TMV in tobacco; type: in vivo; details: % reduction in TMV lesions in unsprayed leaf of tobacco; 152-294 preparation diluted 40-fold, 190-294 diluted 8-fold
Experimental: as §1

[3] = cited from earlier work

In the case of “NH2-Val-Trp-Asn-Gln-Pro-Val-Arg-Gly-Phe-Lys-Val-Tyr-Glu-COOH (H-VWNQPVRGFKVYE-OH; listed as Phytophthora megasperma) [13 amino acid peptide, oligopeptide derived from the 42 kDa glycoprotein elicitor of Phytophthora megasperma]”, the “% Change” value ([1]; height increase vs buffer, 100 ng/ml peptide) is reported as 12.6%, the “Height of seedlings (cm)” value ([1]; individual tomato seedlings, seeds soaked overnight in 100 ng/ml peptide, listed as Peptide Solution) is reported as 6.5 cm (5×) and 6.0 cm (5×) and the “Average (cm)” value ([1]; mean seedling height, 100 ng/ml peptide) is reported as 6.25 cm. For the same molecule, the “defense response in parsley cells” value (parsley cells) was “sufficient to elicit a complex defense response” and the HR elicitation [2] was “not able to elicit the HR”.

B1: HrpZ Fragment 190-294: amino acids 190-294 of HrpZ (SEQ ID NO: 31), calmodulin-binding peptide fusion, crude preparation (protein, listed as Pseudomonas syringae)
chain: DIIGQQLGNQQSDAGSLAGTGGGLGTPSSFSNNSSVMGDPLIDANTGPGDSGNTRGEAGQLIGELIDRGLQSVLAGGGLGTPVNTPQTGTSANGGQSAQDLDQLL
modifications: calmodulin-binding peptide fusion
For B1, the “PGE(% > buffer ht)” value (tomato) was 2.62%, the “HR elicitation (in words)” value (tobacco leaves; dilutions infiltrated into tobacco leaves) was “did not” and the “HR test, dilution 1:2” value (tobacco leaves; preparation diluted 1:2 with MilliQ water, result for each of two plants) was “−,−”. For the same molecule, the “HR test, dilution 1:5” value (tobacco leaves; preparation diluted 1:5 with MilliQ water, result for each of two plants) was “−,−”, the “HR test, dilution 1:25” value (tobacco leaves; preparation diluted 1:25 with MilliQ water, result for each of two plants) was “−,−” and the “HR test, dilution 1:125” value (tobacco leaves; preparation diluted 1:125 with MilliQ water, result for each of two plants) was “−,−”. For the same molecule, the HR elicitation (tobacco leaves; tobacco leaves) was “−” and the “TMV (% efficacy)” value (TMV) was 85% and 85.25%.

B2: hypersensitive response elicitor polypeptide or protein derived from Erwinia amylovora: elicitor from Erwinia amylovora, amino acid sequence SEQ ID NO: 23 (protein, listed as Erwinia amylovora)
chain: MSLNTSGLGASTMQISIGGAGGNNGLLGTSRQNAGLGGNSALGLGGGNQNDTVNQLAGLLTGMMMMMSMMGGGGLMGGGLGGGLGNGLGGSGGLGEGLSNALNDMLGGSLNTLGSKGGNNTTSTTNSPLDQALGINSTSQNDDSTSGTDSTSDSSDPMQQLLKMFSEIMQSLFGDGQDGTQGSSSGGKQPTEGEQNAYKKGVTDALSGLMGNGLSQLLGNGGLGGGQGGNAGTGLDGSSLGGKGLQNLSGPVDYQQLGNAVGTGIGMKAGIQALNDIGTHRHSSTRSFVNKGDRAMAKEIGQFMDQYPEVFGKPQYQKGPGQEVKTDDKSWAKALSKPDDDGMTPASMEQFNKAKGMIKRPMAGDTGNGNLQARGAGGSSLGIDAMMAGDAINNMALGKLGAA
For B2, the “heat stable at 100° C. for” value [3] is listed as “at least 10 minutes”.

— patent US6858707B1, “Hypersensitive response elicitor fragments which are active but do not elicit a hypersensitive response” (EDEN Bioscience Corporation, priority 1998, dated 2005)
